Test results from article PMC3625234, “The L-Cysteine Desulfurase NFS1 Is Localized in the Cytosol where it Provides the Sulfur for Molybdenum Cofactor Biosynthesis in Humans” (PLoS ONE, 2013).
Values belong to the molecule of their own block, whether it stands above or below them.

Tests used:
[1] = target: ECFP-MOCS3-RLD fusion (human); assay: FRET or BRET; time-gated FLIM-FRET in transiently transfected HeLa cells; ECFP donor lifetime (long component τ1 of a bi-exponential fit) with EYFP acceptor; N = 30–42 cells
[2] = target: MOCS3-RLD (purified) (human); assay: SPR; Biacore T200, CM5 chip, target immobilized by amine coupling (400–600 RU), 25°C, 30 µL/min, 20 mM phosphate, 150 mM NaCl, 0.005% Tween 20, pH 7.4; analytes 0.31–10 µM; global fit, 1:1 binding, mean of 3 measurements
NFS1Δ1-55/ISD11 complex = target: T1, NFS1Δ1-55/ISD11 complex (human, UniProt Q9Y697 56-457; Q9HD34 1-91); assay: as above; conditions: both partners purified
T1 construct: L-cysteine desulfurase NFS1, human, without residues 1-55; ISD11, human; source: E. coli BL21(DE3), co-expressed (pZM2 and pZM4), purified

[3] = target: T2, NFS1Δ1-55^C381A/ISD11 complex (human, UniProt Q9Y697 56-457; Q9HD34 1-91, C381A); assay: as above; conditions: both partners purified
T2 construct: L-cysteine desulfurase NFS1, human, without residues 1-55, with C381A; ISD11, human; without ISD11 it precipitated; source: E. coli BL21(DE3), co-expressed (pUMT13 and pZM4), purified
T2 sequence (Q9Y697 56-457 C381A, chain 1 of 2): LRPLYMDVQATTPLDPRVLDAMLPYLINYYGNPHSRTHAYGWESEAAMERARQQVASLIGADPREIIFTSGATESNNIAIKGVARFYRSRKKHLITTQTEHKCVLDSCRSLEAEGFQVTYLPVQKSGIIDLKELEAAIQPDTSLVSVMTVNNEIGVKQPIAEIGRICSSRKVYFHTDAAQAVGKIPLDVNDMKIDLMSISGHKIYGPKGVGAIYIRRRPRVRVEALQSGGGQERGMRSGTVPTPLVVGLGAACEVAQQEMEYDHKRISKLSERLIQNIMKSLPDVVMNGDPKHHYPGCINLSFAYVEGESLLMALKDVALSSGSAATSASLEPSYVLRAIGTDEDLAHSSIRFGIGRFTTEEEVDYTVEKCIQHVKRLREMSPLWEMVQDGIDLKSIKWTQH
T2 sequence (Q9HD34 whole entry, chain 2 of 2, the tested form may be a part): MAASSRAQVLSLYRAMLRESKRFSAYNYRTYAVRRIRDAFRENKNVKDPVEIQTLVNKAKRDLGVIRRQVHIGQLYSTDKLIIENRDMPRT

T1 sequence (Q9Y697 56-457, stated change not applied, chain 1 of 2): as the sequence (Q9Y697 56-457 C381A, chain 1 of 2) above, with A326C counted along it
T1 sequence (Q9HD34 whole entry, stated change not applied, chain 2 of 2, the tested form may be a part): as the sequence (Q9HD34 whole entry, chain 2 of 2, the tested form may be a part) above

ECFP donor lifetime τ1 [1]: 2.9 ns
reduction of the ECFP donor lifetime [1]: 17%
Molecule: EYFP-NFS1Δ1-55 fusion (from UniProt Q9Y697 56-457) (domain or fragment)

Kd [2]: 36 nM
Molecule: NFS1Δ1-55 (purified) (from UniProt Q9Y697 56-457) (domain or fragment)

Kd [2]: 166 nM
Molecule: NFS1Δ1-55/ISD11 complex (from UniProt Q9Y697 56-457; Q9HD34 1-91)

Kd [2]: 241 nM
Molecule: NFS1Δ1-55^C381A/ISD11 complex (from UniProt Q9Y697 56-457; Q9HD34 1-91)

Kd (NFS1Δ1-55/ISD11 complex): 119 nM
Kd [3]: 218 nM
B1: MOCS3 purified after expression in Sf9 cells (enzyme, human, UniProt O95396 1-460, looked up)
chain: MASREEVLALQAEVAQREEELNSLKQKLASALLAEQEPQPERLVPVSPLPPKAALSRDEILRYSRQLVLPELGVHGQLRLGTACVLIVGCGGLGCPLAQYLAAAGVGRLGLVDYDVVEMSNLARQVLHGEALAGQAKAFSAAASLRRLNSAVECVPYTQALTPATALDLVRRYDVVADCSDNVPTRYLVNDACVLAGRPLVSASALRFEGQITVYHYDGGPCYRCIFPQPPPAETVTNCADGGVLGVVTGVLGCLQALEVLKIAAGLGPSYSGSLLLFDALRGHFRSIRLRSRRLDCAACGERPTVTDLLDYEAFCGSSATDKCRSLQLLSPEERVSVTDYKRLLDSGAFHLLLDVRPQVEVDICRLPHALHIPLKHLERRDAESLKLLKEAIWEEKQGTQEGAAVPIYVICKLGNDSQKAVKILQSLSAAQELDPLTVRDVVGGLMAWAAKIDGTFPQY
notes: MOCS3, human; no tag is named here; also called pMMC30; source: Sf9 cells, purified
